Reference: the supplement of paper PMC10567573
± gives the standard deviation.

Experiment: protein stability index of a GFP-peptide fusion (GPS, HEK-293T) (PSI 1-6); higher = more stable
Conditions: c terminus: a fixed tail appended
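Note: 24-mer peptide tiles fused after GFP, lentivirally expressed, FACS-sorted into six equal bins by GFP/DsRed ratio, decoded by Illumina sequencing, PSI is the read-weighted mean bin number.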

Sequence	protein stability index (treatment: DMSO)	protein stability index (treatment: MLN4924 1 uM, 8 h)
ESGVHGALLALDENFDHNTLALIL [PPFIA4]	2.75 ± 0.17	2.96 ± 0.27
ESRLKRSNPLAREIFRRHFRQLCY [ZSCAN9]	2.15 ± 0.25	2.34 ± 0.1
ESSSRGEAGAPGEEDIQGPTKADT [CHGB]	5.64 ± 0.29	5.43 ± 0.32
ESSTREVVFPYTSKSCMRAVLEYL [RHOBTB2]	2.74 ± 0.13	2.32 ± 0.25
ETIQGFWLLTKIDHWNNEKERILL [TPRG1]	2.59 ± 0.44	2.73 ± 0.59
ETKLDLISKGEEPRAGKEESGVSV [SLC29A1]	5.44 ± 0.15	5.39 ± 0.52
EVEAKFKRYESHPVCADLQAKILQ [CHCHD3]	3.66 ± 0.21	3.58 ± 0.078
EVEELDNWQPAVPLMHMLHLSGAL [SPATS1]	2.18 ± 0.27	2.16 ± 0.35
EVYYDGQWGTVCDDDFSIHAAHVV [LOXL2]	2.62 ± 0.31	2.6 ± 0.37
EYGTCMCLVKGIFYHCSNDDEGDS [SPRY1]	3.14 ± 0.21	3.27 ± 0.23
EYNYDWWEKKPFSEDVNWGYEKRN [CHGB]	3.17 ± 0.21	3.19 ± 0.23
EYQVLLDVKARLEGEIATYRHLLE [KRT36]	2.54 ± 0.32	2.53 ± 0.29
FALQSDLDQPAFQQLVSFSESGSL [ISL2]	2.91 ± 0.37	3.03 ± 0.3
FCDMDKSLLCLLCSNSQEHGAHKH [TRIM43]	2.49 ± 0.37	3 ± 0.67
FDGRHSQTLKAMVQAWPFTCLPLG [PRAME]	2.38 ± 0.48	2.24 ± 0.36
FDPIVLLPCDLPKVVSRAENLSVP [LPCAT4]	2.8 ± 0.2	2.87 ± 0.3
FDVVVCDQVSACIPVFRLARRRKK [ALG2]	2.59 ± 0.28	2.62 ± 0.2
FECAWNGSDSVIMTGAYNNFFRMF [PPP2R2C]	2.5 ± 0.35	2.35 ± 0.6
FEVPYYNRGLILYRLGYFDDALED [TTC32]	2.5 ± 0.44	2.23 ± 0.36
FGDSPKAEKRQIGDQEGPRPARST [FBF1]	5.11 ± 0.47	5.08 ± 0.36
FGGGSTRGGSLLAGGGGFGGGSLS [KRT15]	2.54 ± 0.43	3.11 ± 0.52
FGSLPSPKELSSFSFSMKGHEKTA [DLC1]	3.53 ± 0.19	3.74 ± 0.25
FGSQQSPIDVVEKYDPKTQEWSFL [KLHL12]	3.44 ± 0.34	3.65 ± 0.39

Sequence	protein stability index (treatment: DMSO)	protein stability index (treatment: MLN4924 1 uM, 8 h)
FHITNDEPIPFWTFLSRILTGLNY [NSDHL]	2.45 ± 0.58	2.2 ± 0.15
FHVNLGKESRAQTLQNGRRHIHHL [BRF1]	2.66 ± 0.34	2.93 ± 0.41
FIIEYYNIRPADSRWVRDPRYRED [FBXO34]	2.44 ± 0.53	2.26 ± 0.29
FIMLSCVQLQRIPLSAVYRICLGK [TPRG1]	3.06 ± 0.75	2.01 ± 0.43
FKAWLHNSGTDQEQIHLLLSSQCF [M1AP]	2.6 ± 0.66	2.43 ± 0.39
FLDIDTSAVEKEPARAPPEPPHNL [SERTAD3]	4.84 ± 0.13	4.98 ± 0.45
FLIEGPLINTIRVVCASYEDYGHW [PLEKHN1]	3.56 ± 0.49	2.58 ± 0.94
FLKQGDSADETTAHKTEEENSDSD [CMTM3]	5.63 ± 0.25	5.58 ± 0.43
FLLFLLTGIVSVAFLLLPLPDELG [MOSPD3]	3.36 ± 0.39	2.89 ± 0.9
FLYMLMEYVPGGELFSYLRNRGRF [PRKX]	2.75 ± 0.29	2.42 ± 0.28
FMECLVDARMLDHLTKKDLRVHLK [PPFIA4]	2.4 ± 0.32	2.67 ± 0.24
FNNGEYAEAEALYSAYIRRCACAA [TTC32]	2.39 ± 0.19	2.64 ± 0.46
FQNFSLHDPLYGKLFSTYLRPPHT [LPCAT4]	2.27 ± 0.36	2.12 ± 0.19
FQREALENSHTNTEVLRNMGFAAK [CHMP4C]	3.59 ± 0.21	4.08 ± 0.28
FRCPTCRHEVIMDRHGVYGLQRNL [TRIM63]	2.31 ± 0.3	2.83 ± 0.52
FSGGKSGGNKKSDGVKESSESTNT [CAMK2A]	5.25 ± 0.2	5.36 ± 0.34
FSGTDWMLEKMDLKEFDLDALLGI [ATF4]	2.33 ± 0.11	2.5 ± 0.49
FSKASSSLQLVFGIELMEVDPIGH [MAGEA3]	2.62 ± 0.6	2.29 ± 0.46
FSLNPRSGSLITAGRIDREELCAQ [PCDHGA10]	3.83 ± 0.38	3.93 ± 0.37
FSQLYLYSFISLFIYMVLSLFIAL [MCOLN1]	3.28 ± 0.21	3.24 ± 0.21
FTEYQASAFGNVKLVVHDCPVWDI [RHOBTB3]	2.54 ± 0.72	2.46 ± 0.41
FTFLGKKCVTMSSAVVQLYAADRN [WASL]	2.33 ± 0.34	2.43 ± 0.36
FTSGFNAAALDYEADGSTNNGIFQ [SPACA3]	2.67 ± 0.53	3.48 ± 0.74

Sequence	protein stability index (treatment: DMSO)	protein stability index (treatment: MLN4924 1 uM, 8 h)
FVADEGICYLPHWMMQNLLLEEGG [UFD1]	2.36 ± 0.62	2.28 ± 0.38
FVESSGGGSSAVGQFVSLDGAGKT [BRF1]	2.94 ± 0.52	3.44 ± 0.58
FYTCASHVTVVILFFVPCIFLYAR [OR4A15]	3.13 ± 0.35	3.08 ± 0.26
GADPDSRDFDNNTPLHIAAQNNCP [FEM1A]	4.96 ± 0.39	5.18 ± 0.88
GAGDWREKEAKDLTELVQRRITYL [FUT8]	3.61 ± 0.27	3.31 ± 0.3
GAYKSSTICYCPEKGTWTELEGDV [KLHL14]	4.22 ± 0.32	4.38 ± 0.32
GDDAPKEEVDTGAVNLIESGACGA [INTS4]	5.5 ± 0.25	5.36 ± 0.18
GDRMFYRDWWNSTSFSNYYRTWNV [SOAT2]	2.19 ± 0.16	2.28 ± 0.39
GECRQMSSSSQIGNDSFQLQVTED [CLCN6]	5.06 ± 0.22	5.09 ± 0.25
GEDIPEKIKDEVHPEVKCVGSVAL [C8orf76]	4.84 ± 0.39	4.81 ± 0.31
GEDTRLSASEMKQLIDNILEESDI [CIB1]	5.27 ± 0.27	5.26 ± 0.25
GEKPHRCPQCGKCFARKSQLTGHQ [ZNF449]	4.66 ± 0.23	4.85 ± 0.31
GELRLGKNLYTNEYVAIKLEPMKS [CSNK1G3]	2.32 ± 0.29	2.27 ± 0.7
GEYPRWDAWSGSNAYHIERLMSFR [CRYBA1]	2.17 ± 0.22	2.41 ± 0.28
GFAFITFENPADAKNAAKDMNGKS [RBMY1A1]	3.55 ± 0.46	3.68 ± 0.36
GFEFSVPFTEMKLRPRNFRSPAGG [TNXB]	–	3.66 ± 0.66
GGEMSPQVETSIEGTIPFSKPVKV [INTS4]	4.77 ± 0.2	4.76 ± 0.17
GGFAKCYEMTDLTNNKVYAAKIIP [PLK2]	2.52 ± 0.38	2.81 ± 0.29
GGGSLSGGGGSRSISASSARFVSS [KRT15]	4.23 ± 0.47	4.39 ± 0.23
GGKIIMPPSALDQLSRLNITYPML [UFD1]	2.16 ± 0.089	2.28 ± 0.2
GIPKGVMLSHDNITWIAGAVTKDF [ACSBG2]	2.67 ± 0.15	2.74 ± 0.15
GKLSWGTMARALGRFKLSIPHTHL [WDR88]	2.31 ± 0.28	2.13 ± 0.11
GKRRKDEISVDSLDFSKKILHTAW [PPP2R2B]	2.34 ± 0.2	2.52 ± 0.049

Sequence	protein stability index (treatment: DMSO)	protein stability index (treatment: MLN4924 1 uM, 8 h)
GKVQDIKAREKDGKGRTASPINSP [FSD1]	4.99 ± 0.37	5.25 ± 0.24
GLGNTWPGASGSAQSLDRLGIMGA [ATP23]	3.3 ± 0.24	3.48 ± 0.3
GLPPSGSWQDLKDHMREAGDVCYA [SRSF1]	3.65 ± 0.25	3.83 ± 0.48
GMLCSFRIPGAWSCAWSLNIQANN [DCAF4]	2.69 ± 0.8	2 ± 0.29
GMVRAHGVRVSVPCPSTTCCRACS [BET1L]	3.04 ± 0.29	3.4 ± 0.51
GNFESLDLAEFAKKQPWWRKLFGQ [FUNDC2]	3.31 ± 0.24	3.29 ± 0.35
GNGALSNISDLPFLAENSAFPKMA [LCOR]	3.72 ± 0.22	3.49 ± 0.17
GPAPPPLPPALVPAGGLAPGGGRG [WAS]	5.09 ± 0.13	5.09 ± 0.18
GPDTQDLEGQSPPQSLPSTPKAAW [PBXIP1]	5.2 ± 0.28	5.07 ± 0.18
GPFDQGSPFAQELLDDGQQASPYH [ELF3]	5.16 ± 0.18	4.96 ± 0.13
GPLLGTNGATDDSKTNLIVNYLPQ [ELAVL3]	3.84 ± 0.3	3.92 ± 0.24
GRGPPSEPVLTQTSEQAPSSAPRD [PTPRD]	5.74 ± 0.22	5.34 ± 0.31
GRKDITSILRAPAYPLELQGQPDP [MOSPD3]	4.26 ± 0.15	4.28 ± 0.35
GRQERGLPPSMERGYPPPRDSYSS [RBMX]	4.77 ± 0.088	4.71 ± 0.19
GRRAALYVHWPYCEKRCSYCNFNK [RSAD1]	2.23 ± 0.45	2.96 ± 0.55
GRVLRKLPFLAHALYVQAPTVTIE [TRIP13]	2.32 ± 0.54	2.05 ± 0.45
GSFHGPGHISLRRENSSDSPKELK [DLC1]	4.99 ± 0.39	5.09 ± 0.41
GSGTIDFEEFLVMMVRQMKEDAKG [TNNC2]	3.25 ± 0.88	3.88 ± 0.8
GSMVEIAKQLQAVKRKIRDESLCP [TRIM39]	3.09 ± 0.24	3.15 ± 0.24
GSSDASGSYSSTMNGHQNGLDSPP [ESRRG]	4.93 ± 0.13	4.99 ± 0.27
GTPSLLRGKRGGHATNYRIVAPRS [EMID1]	4.1 ± 0.12	3.88 ± 0.32
